# Legend:
# [1] = tested on: HT29 colon cancer xenograft; test: s.c. human HT29 colon cancer xenograft model, 5-FU with BIO1; type: in vivo, nude mice
# Description: To further explore the chemotherapy sensitizing activity of SPARC, the athymic mouse tumor xenograft system was used to assess the sensitization of HT 29 human colocancer cells to 5-flurouracil (“5-FU”).
# The cancer cells were implanted subcutaneously bilaterally in athymic mice. The mice were treated with saline or 25 mg/kg of 5-FU (see Table 4). Those animals that received SPARC were treated with wild type polypeptide (SEQ ID NO:1) at a dose of 4 mg/kg, 6 mg/kg or 8 mg/kg (see Table 4). The animals were monitored for survival and xenograft growth as measures of efficacy and body weight change as a measure of toxicity.
# [2] = tested on: HUVEC; test: Transport of paclitaxel across EC monolayers on transwell (HUVEC); type: cell-based, human; conditions: cell type not specified
# Description: A series of experiments were performed to evaluate binding and transport of paclitaxel by human umbilical vein endothelial cells (HUVEC) and human lung microvessel endothelial cells (HLMVEC) for ABX and TAX. Fluorescent paclitaxel (FP) was used as a probe and fluorescent ABX and TAX were formulated with FP to probe the binding and transport of paclitaxel across EC monolayers grown on a transwell apparatus.
# [3] = tested on: Breast Cancer (MDA-MB-231); test: Breast cancer xenograft, SPARC / Avastin / Abraxane; type: in vivo, athymic nude mice; conditions: for tumor growth, addition to Abraxane compared to the other arms: breast cancer cells
# Description: (§1) Human breast cancer (FIGS. 7 and 8) and colon cancer cells (FIGS. 9 and 10) were grown in athymic nude mice as xenografts as in EXAMPLES 12 and 13. There were 5 mice in each treatment group. Tumors were treated when they reached 200 mm^3. […] Both wild type (“BIO1”) and Q3 mutant SPARC (“BIO2”) were evaluated. The animals were monitored for survival and xenograft growth as measures of efficacy and body weight change as a measure of toxicity.
# [4] = tested on: Colon Cancer (HT29); test: Colon cancer xenograft, SPARC / Avastin / Abraxane; type: in vivo, athymic nude mice; conditions: for tumor growth, single agent therapy versus saline control / tumor growth, addition to Abraxane compared to Abraxane alone: colon cancer cells
# Description: as §1
# [5] = tested on: HUVEC; test: In vitro angiogenesis assay (TSC CellWorks Angiokit); type: cell-based, human; conditions: 12 days in culture
# Description: In this system, human umbilical vein endothelial cells (“HUVEC”) are co-cultured with other human cells (fibroblast) in collagen matrix. HUVEC cells initially form small islands within the culture matrix. HUVEC differentiate, proliferate and enter migratory phase during which they move through the matrix and form threadlike tubule structures (9-11 days). These gradually join up and form a network which resemble the capillary bed.
# HUVEC cells grown in a three dimensional matrix were treated with various concentration of wild type SPARC polypeptide (SEQ ID NO: 1) or the Q3 mutant SPARC polypeptide (SEQ ID NO: 3). Capillary microtubules were visualized using immunostaining for CD31 after 12 days in culture. FIG. 6 depicts SPARC's concentration dependent effect on neoangiogensis showing characteristic examples of the capillary microtubular density in the absence of SPARC (0 μg/ml), wild type or Q3 SPARC at 10 μg/ml, and wild type or Q3 SPARC at 100 μg/ml.
molecule,measurement,setting,value
"O=c1[nH]cc(F)c(=O)[nH]1 [5-FU, 5-flurouracil]",% BWLmax,[1]; 5-FU 25 mg/kg IP,−5.8%
same,TGI (%),"[1]; 5-FU 25 mg/kg IP, post-treatment day 25",79.8%
CCN1C(=O)C=CC1=O [NEM],effect on transport of paclitaxel from ABX across endothelial monolayers,[2],inhibited
Avastin: angiogenesis inhibitor [reference compound],Tumor growth inhibition (TGI) relative to Abraxane alone,"[3]; MDA-MB-231, SPARC 150 μg/kg 2×/week, Avastin 4 mg/kg twice per week, Abraxane 15 mg/kg every fourth day ×3",16%
same,Tumor growth inhibition (TGI) relative to Abraxane alone,"[4]; HT29, SPARC 150 μg/kg 2×/week, Avastin 4 mg/kg twice per week, Abraxane 15 mg/kg every fourth day ×3",<0%
same,"tumor growth, single agent therapy versus saline control",[4],no better than the saline control treatments
beta-methyl cyclodextrin [BMC],effect on transport of paclitaxel from ABX across endothelial monolayers,[2],inhibited
"BIO2: Q3 mutant SPARC (SEQ ID NO: 3), deletion of the third glutamine in mature human SPARC (protein, listed as Homo sapiens) APQEALPDETEVVEETVAEVTEVSVGANPVQVEVGEFDDGAEETEEEVVAENPCQNHHCKHGKVCELDENNTPMCVCQDPTSCPAPIGEFEKVCSNDNKTFDSSCHFFATKCTLEGTKKGHKLHLDYIGPCKYIPPCLDSELTEFPLRMRDWLKNVLVTLYERDEDNNLLTEKQKLRVKKIHENEKRLEAGDHPVELLARDFEKNYNMYIFPVHWQFGQLDQHPIDGYLSHTELAPLRAPLIPMEHCTTRFFETCDLDNDKYIALDEWAGCFGIKQKDIDKDLVI","tumor growth, addition to Abraxane compared to the other arms",[3],"similar, though blunted, results"
same,"tumor growth, addition to Abraxane compared to Abraxane alone",[4],fails to slow tumor growth beyond that achieved with Abraxane®
"BIO1: wild type SPARC polypeptide (SEQ ID NO: 1) (protein, listed as Homo sapiens) APQQEALPDETEVVEETVAEVTEVSVGANPVQVEVGEFDDGAEETEEEVVAENPCQNHHCKHGKVCELDENNTPMCVCQDPTSCPAPIGEFEKVCSNDNKTFDSSCHFFATKCTLEGTKKGHKLHLDYIGPCKYIPPCLDSELTEFPLRMRDWLKNVLVTLYERDEDNNLLTEKQKLRVKKIHENEKRLEAGDHPVELLARDFEKNYNMYIFPVHWQFGQLDQHPIDGYLSHTELAPLRAPLIPMEHCTTRFFETCDLDNDKYIALDEWAGCFGIKQKDIDKDLVI",sensitization of the cancer cells to 5-FU,"[1]; any of the SPARC concentrations used (4, 6, 8 mg/kg)",failed to sensitize
"SPARC: Secreted Protein, Acidic, Rich in Cysteines, also known as osteonectin; wild type or Q3 not told apart at the place (protein) APQQEALPDETEVVEETVAEVTEVSVGANPVQVEVGEFDDGAEETEEEVVAENPCQNHHCKHGKVCELDENNTPMCVCQDPTSCPAPIGEFEKVCSNDNKTFDSSCHFFATKCTLEGTKKGHKLHLDYIGPCKYIPPCLDSELTEFPLRMRDWLKNVLVTLYERDEDNNLLTEKQKLRVKKIHENEKRLEAGDHPVELLARDFEKNYNMYIFPVHWQFGQLDQHPIDGYLSHTELAPLRAPLIPMEHCTTRFFETCDLDNDKYIALDEWAGCFGIKQKDIDKDLVI","angiogenic activity (capillary microtubule density, CD31)",[5]; 10 μg/ml,proangiogenic
same,"angiogenic activity (capillary microtubule density, CD31)",[5]; 100 μg/ml,inhibits angiogenesis
same,"tumor growth, addition to Abraxane compared to the other arms",[3],marked decreases in tumor growth
same,"tumor growth, addition to Abraxane compared to Abraxane alone",[4],further decreases in tumor growth
same,"tumor growth, single agent therapy versus saline control",[4],no better than the saline control treatments

# From patent publication US20080255035A1, “SPARC AND METHODS OF USE THEREOF” (Abraxis BioScience, Inc., priority 2007, published 2008)
